# Results reported in patent US20050059089A1 (priority 2003, published 2005).
# Entries after “also recorded” stand apart in the source; their conditions may differ.
# Biological target: GPCR142 (Homo sapiens, UniProt Q8TDU9, L329S)
# Experiment: Ca2+ mobilization assay (FLIPR), HEK293 cells co-expressing GPCR142 and Gα16
# Assay type: cell-based
# Parameters: The complete coding region of human GPCR142 was PCR-amplified from human genomic DNA; expressed in transfected cells; HEK293 co-transfected with Gα16 (Ca2+)
# Description: Human embryonic kidney (HEK) 293 cells were transfected with GPCR135,.GPCR142 or co-transfected with Gqi5 (Conklin et al. (1993), Nature 363, 274-280) or Gα16 (Amatruda et al. (1991), Proc. Natl. Acad. Sci. U.S.A. 88, 5587-5591) expressing plasmids using LipofectAmine. Two days after transfection, cells were detached with PBS plus 10 mM EDTA. The detached cells were washed with DMEM-F12 medium (without phenol red, Invitrogen) and seeded in black poly-D lysine coated 96-well plates (BD Biosciences, San Jose, Calif.) at a cell density of 50,000 cell/well.
# Chain of GPCR142 (Q8TDU9 whole entry L329S): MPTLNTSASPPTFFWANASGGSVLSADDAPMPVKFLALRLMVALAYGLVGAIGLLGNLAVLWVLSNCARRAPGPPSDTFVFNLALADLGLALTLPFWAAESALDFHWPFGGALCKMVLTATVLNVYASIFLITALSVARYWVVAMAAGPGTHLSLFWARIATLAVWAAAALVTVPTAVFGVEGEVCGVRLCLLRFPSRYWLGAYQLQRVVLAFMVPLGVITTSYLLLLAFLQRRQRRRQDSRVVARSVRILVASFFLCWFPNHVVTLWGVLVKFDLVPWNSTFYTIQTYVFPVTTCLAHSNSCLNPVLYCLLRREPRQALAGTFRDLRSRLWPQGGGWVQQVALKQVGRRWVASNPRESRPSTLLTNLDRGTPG
substance,measurement,value
"relaxin3: Human relaxin3 (SEQ ID NO: 6), produced recombinantly; mature peptide of A- and B-chain linked by disulfide bridges",stimulation of Ca2+ mobilization,stimulated Ca2+ mobilization; also recorded: stimulated a strong Ca^2+ signal; also recorded: stimulates Ca^2+ signaling
